Test results: PMC8857205

Biological target: Glu14 (UniProt position 14, GAILAEVIGTT)
Assay: NMR
[1] = TPP+-bound, cited from earlier work

| Substance | pKa [1] | pKa (45 °C, 20 mM NaCl plus buffer salts (total ionic strength not stated), 50 mM sodium acetate, 50 mM MOPS, 50 mM MES, 50 mM bicine, 2 mM TCEP, 0.01% DSS, F4-TPP+-bound (saturated), folded dimer in bicelles) |
| --- | --- | --- |
| EmrE (multidrug transporter, small multidrug resistance family), wild type (Escherichia coli) | 6.8 ± 0.1 | – |
| S64V-EmrE (Escherichia coli; S64V) | 7.0 ± 0.1 | 6.9 ± 0.1 |
